No end group written: not given here.
T1: His-tagged P3028 (human, also: His-tag, terminus and sequence not given here)
T1 construct: used in solution in the PEPSCAN (rampo) ELISA; also called PGE73; His-tag-P3028; not shown: His tag
T1 peptide: VFDEFKPLVEEPQNLIK

B1: SEQ ID NO 294 (peptide)
peptide: KKRDTFFVKLSLFTER
B2: SEQ ID NO 302 (peptide)
peptide: KKLWTFFVKLSLFTER
B3: SEQ ID NO 315 (peptide)
peptide: KKLDTMFVKLSLFTER
B4: SEQ ID NO 346 (peptide)
peptide: KKLDTFFVKLMLFTER
B5: SEQ ID NO 345 (peptide)
peptide: KKLDTFFVKLHLFTER
B6: SEQ ID NO 333 (peptide)
peptide: KKLDTFFVKFSLFTER
B7: SEQ ID NO 299 (peptide)
peptide: KKLETFFVKLSLFTER
B8: SEQ ID NO 339 (peptide)
peptide: KKLDTFFVKQSLFTER
B9: SEQ ID NO 336 (peptide)
peptide: KKLDTFFVKMSLFTER
B10: SEQ ID NO 308 (peptide)
peptide: KKLDQFFVKLSLFTER
B11: SEQ ID NO 349 (peptide)
peptide: KKLDTFFVKLTLFTER
B12: SEQ ID NO 318 (peptide)
peptide: KKLDTTFVKLSLFTER
B13: SEQ ID NO 326 (peptide)
peptide: KKLDTFFFKLSLFTER
notes: also called P28R with F at position 8
B14: SEQ ID NO 312 (peptide)
peptide: KKLDYFFVKLSLFTER
B15: SEQ ID NO 301 (peptide)
peptide: KKLVTFFVKLSLFTER
B16: SEQ ID NO 330 (peptide)
peptide: KKLDTFFRKLSLFTER
notes: also called P28R with R at position 8
B17: SEQ ID NO 304 (peptide)
peptide: KKLDCFFVKLSLFTER
B18: SEQ ID NO 310 (peptide)
peptide: KKLDSFFVKLSLFTER
B19: SEQ ID NO 331 (peptide)
peptide: KKLDTFFVRLSLFTER
B20: SEQ ID NO 307 (peptide)
peptide: KKLDPFFVKLSLFTER
B21: SEQ ID NO 338 (peptide)
peptide: KKLDTFFVKPSLFTER
B22: SEQ ID NO 314 (peptide)
peptide: KKLDTIFVKLSLFTER
B23: SEQ ID NO 319 (peptide)
peptide: KKLDTVFVKLSLFTER
B24: SEQ ID NO 305 (peptide)
peptide: KKLDMFFVKLSLFTER
B25: SEQ ID NO 303 (peptide)
peptide: KKLYTFFVKLSLFTER
B26: SEQ ID NO 323 (peptide)
peptide: KKLDTFSVKLSLFTER
B27: SEQ ID NO 348 (peptide)
peptide: KKLDTFFVKLQLFTER
B28: SEQ ID NO 295 (peptide)
peptide: KKSDTFFVKLSLFTER
B29: SEQ ID NO 334 (peptide)
peptide: KKLDTFFVKGSLFTER
B30: SEQ ID NO 320 (peptide)
peptide: KKLDTFLVKLSLFTER
B31: SEQ ID NO 350 (peptide)
peptide: KKLDTFFVKLSAFTER
B32: SEQ ID NO 342 (peptide)
peptide: KKLDTFFVKTSLFTER
B33: SEQ ID NO 327 (peptide)
peptide: KKLDTFFGKLSLFTER
notes: also called P28R with G at position 8
B34: SEQ ID NO 329 (peptide)
peptide: KKLDTFFPKLSLFTER
notes: also called P28R with P at position 8
B35: SEQ ID NO 311 (peptide)
peptide: KKLDWFFVKLSLFTER
B36: SEQ ID NO 347 (peptide)
peptide: KKLDTFFVKLNLFTER
B37: SEQ ID NO 321 (peptide)
peptide: KKLDTFMVKLSLFTER
B38: SEQ ID NO 343 (peptide)
peptide: KKLDTFFVKVSLFTER
B39: SEQ ID NO 325 (peptide)
peptide: KKLDTFVVKLSLFTER
B40: SEQ ID NO 341 (peptide)
peptide: KKLDTFFVKSSLFTER
B41: SEQ ID NO 332 (peptide)
peptide: KKLDTFFVKASLFTER
B42: SEQ ID NO 313 (peptide)
peptide: KKLDTAFVKLSLFTER
B43: SEQ ID NO 316 (peptide)
peptide: KKLDTNFVKLSLFTER
B44: SEQ ID NO 322 (peptide)
peptide: KKLDTFQVKLSLFTER
B45: SEQ ID NO 328 (peptide)
peptide: KKLDTFFLKLSLFTER
notes: also called P28R with L at position 8
B46: SEQ ID NO 298 (peptide)
peptide: KKLATFFVKLSLFTER
B47: SEQ ID NO 300 (peptide)
peptide: KKLITFFVKLSLFTER
B48: SEQ ID NO 309 (peptide)
peptide: KKLDRFFVKLSLFTER
B49: SEQ ID NO 337 (peptide)
peptide: KKLDTFFVKNSLFTER
B50: SEQ ID NO 340 (peptide)
peptide: KKLDTFFVKRSLFTER
B51: SEQ ID NO 297 (peptide)
peptide: KKVDTFFVKLSLFTER
B52: SEQ ID NO 317 (peptide)
peptide: KKLDTPFVKLSLFTER
B53: SEQ ID NO 306 (peptide)
peptide: KKLDNFFVKLSLFTER
B54: SEQ ID NO 296 (peptide)
peptide: KKTDTFFVKLSLFTER
B55: SEQ ID NO 351 (peptide)
peptide: KKLDTFFVKLSHFTER
B56: SEQ ID NO 344 (peptide)
peptide: KKLDTFFVKYSLFTER
B57: SEQ ID NO 335 (peptide)
peptide: KKLDTFFVKISLFTER
B58: SEQ ID NO 324 (peptide)
peptide: KKLDTFTVKLSLFTER

Molecular target: T1, His-tagged P3028
Test: PEPSCAN ELISA (rampo)
Method: After washing, the peroxidase substrate 2,2′-azine-di-3-ethylbenzthiazoline sulfonate (ABTS) and 2 μL of 3% H2O2 were added. The binding capacity of the mAb was measured as a color development at 405 nm (optical density, OD405). The color development was quantified with a charge-coupled device (CCD)—camera and an image processing system.
The OD405-values obtained by a CCD-camera was considered as raw data values (“rampo values,” “rampo units,” or “rampo scores”). […] First the CCD-camera made a picture of the card before peroxidase coloring and then again a picture after the peroxidase coloring. […] These values were copied into an excel file and labeled as a raw data file. One follow-up manipulation was allowed. Sometimes a well can contain an air-bubble resulting in a false-positive value. If manual inspection of the cards detect an air-bubble the value are set to 0 for that well.

Binder | rampo score relative to the P28R control sample | RAMPO Score [rampo units]
B1 | ≥ 98 % of P28R control | –
B2 | ≥ 98 % of P28R control | –
B3 | ≥ 98 % of P28R control | –
B4 | ≥ 98 % of P28R control | –
B5 | ≥ 98 % of P28R control | –
B6 | ≥ 98 % of P28R control | –
B7 | ≥ 98 % of P28R control | –
B8 | ≥ 98 % of P28R control | –
B9 | ≥ 98 % of P28R control | –
B10 | ≥ 98 % of P28R control | –
B11 | ≥ 98 % of P28R control | –
B12 | ≥ 98 % of P28R control | –
B13 | ≥ 98 % of P28R control | ≥ 302
B14 | ≥ 98 % of P28R control | –
B15 | ≥ 98 % of P28R control | –
B16 | ≥ 98 % of P28R control | ≥ 302
B17 | ≥ 98 % of P28R control | –
B18 | ≥ 98 % of P28R control | –
B19 | ≥ 98 % of P28R control | –
B20 | ≥ 98 % of P28R control | –

Binder | rampo score relative to the P28R control sample | RAMPO Score [rampo units]
B21 | ≥ 98 % of P28R control | –
B22 | ≥ 98 % of P28R control | –
B23 | ≥ 98 % of P28R control | –
B24 | ≥ 98 % of P28R control | –
B25 | ≥ 98 % of P28R control | –
B26 | ≥ 98 % of P28R control | –
B27 | ≥ 98 % of P28R control | –
B28 | ≥ 98 % of P28R control | –
B29 | ≥ 98 % of P28R control | –
B30 | ≥ 98 % of P28R control | –
B31 | ≥ 98 % of P28R control | –
B32 | ≥ 98 % of P28R control | –
B33 | ≥ 98 % of P28R control | ≥ 302
B34 | ≥ 98 % of P28R control | ≥ 302
B35 | ≥ 98 % of P28R control | –
B36 | ≥ 98 % of P28R control | –
B37 | ≥ 98 % of P28R control | –
B38 | ≥ 98 % of P28R control | –
B39 | ≥ 98 % of P28R control | –
B40 | ≥ 98 % of P28R control | –

Binder | rampo score relative to the P28R control sample | RAMPO Score [rampo units]
B41 | ≥ 98 % of P28R control | –
B42 | ≥ 98 % of P28R control | –
B43 | ≥ 98 % of P28R control | –
B44 | ≥ 98 % of P28R control | –
B45 | ≥ 98 % of P28R control | ≥ 302
B46 | ≥ 98 % of P28R control | –
B47 | ≥ 98 % of P28R control | –
B48 | ≥ 98 % of P28R control | –
B49 | ≥ 98 % of P28R control | –
B50 | ≥ 98 % of P28R control | –
B51 | ≥ 98 % of P28R control | –
B52 | ≥ 98 % of P28R control | –
B53 | ≥ 98 % of P28R control | –
B54 | ≥ 98 % of P28R control | –
B55 | ≥ 98 % of P28R control | –
B56 | ≥ 98 % of P28R control | –
B57 | ≥ 98 % of P28R control | –
B58 | ≥ 98 % of P28R control | –

From patent US20170298096A1 (CANIMGUIDE THERAPEUTICS, published 2017)
